From patent US20040009177A1 (SERVICES, published 2004)

Experiments:
[1] = target: CX3CR1 on naive mouse spleen leukocytes (mouse) (UniProt Q9Z0D9); assay: cell-based or functional assay
[2] = target: purified recombinant soluble polyhistidine-tagged G glycoprotein (respiratory syncytial virus) (UniProt P03423); assay: flow cytometry, GHIS on CX3CR1-293 cells with control antibody (68% without)
[3] = target: CX3CR1 on Vero cells (African green monkey); assay: cell-based or functional assay
[4] = target: purified recombinant soluble polyhistidine-tagged G glycoprotein (respiratory syncytial virus) (UniProt P03423); assay: flow cytometry, GHIS on CX3CR1-293 cells with antibody (68% without)
[5] = target: RSV G glycoprotein, purified from RSV/A2-infected Vero cells (respiratory syncytial virus, A2 strain) (UniProt P03423); assay: cell-based or functional assay
[6] = target: T1, mouse Fkn (mouse) (UniProt O35188); assay: cell-based or functional assay
T1 sequence (looked up): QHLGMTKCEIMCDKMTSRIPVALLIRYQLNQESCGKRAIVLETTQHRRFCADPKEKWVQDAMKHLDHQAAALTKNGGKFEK

[7] = target: RSV G glycoprotein, purified from RSV/A2-infected Vero cells (respiratory syncytial virus, A2 strain) (UniProt P03423); assay: flow cytometry; inhibition of G glycoprotein binding to 293-CX3CR1 cells, in the absence of heparin
[8] = target: purified recombinant soluble polyhistidine-tagged G glycoprotein (respiratory syncytial virus) (UniProt P03423); assay: flow cytometry; inhibition of polyhistidine-tagged G glycoprotein binding to 293-CX3CR1 cells
[9] = target: T2, CX3CR1 on CX3CR1-transfected human embryonic kidney cells (293-CX3CR1 cells) (UniProt P49238 1-355); assay: Scatchard analysis; displacement of 1 nM 125I-fractalkine from 293-CX3CR1 cells by unlabeled Fkn, 2 h 37°C with azide; mean±SD of three experiments
T2 construct: whole, on cells; also called CX3C receptor; CX3CR1-293 cells
T2 sequence (looked up): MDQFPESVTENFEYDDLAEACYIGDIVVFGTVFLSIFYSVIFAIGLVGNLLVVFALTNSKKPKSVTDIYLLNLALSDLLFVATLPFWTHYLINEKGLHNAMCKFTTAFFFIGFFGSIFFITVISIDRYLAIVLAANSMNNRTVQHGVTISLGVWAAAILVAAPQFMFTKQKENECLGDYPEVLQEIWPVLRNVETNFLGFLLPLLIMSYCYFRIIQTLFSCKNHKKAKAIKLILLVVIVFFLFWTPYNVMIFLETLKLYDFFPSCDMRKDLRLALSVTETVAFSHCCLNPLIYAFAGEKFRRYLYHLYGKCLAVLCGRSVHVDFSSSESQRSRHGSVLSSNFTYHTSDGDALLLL

[10] = target: T2, CX3CR1 on CX3CR1-transfected human …; assay: Scatchard analysis; displacement of 1 nM 125I-fractalkine from 293-CX3CR1 cells by unlabeled G glycoprotein, 2 h 37°C with azide; mean±SD of three experiments
[11] = target: T2, CX3CR1 on CX3CR1-transfected human …; assay: inhibition of G glycoprotein binding to CX3CR1, methods described in the examples (no further detail)
[12] = target: T2, CX3CR1 on CX3CR1-transfected human …; assay: flow cytometry, G glycoprotein on CX3CR1-293 cells with competitor peptide (84% without)

Sequence of CX3CR1 on naive mouse spleen leukocytes (mouse) (Q9Z0D9 whole entry): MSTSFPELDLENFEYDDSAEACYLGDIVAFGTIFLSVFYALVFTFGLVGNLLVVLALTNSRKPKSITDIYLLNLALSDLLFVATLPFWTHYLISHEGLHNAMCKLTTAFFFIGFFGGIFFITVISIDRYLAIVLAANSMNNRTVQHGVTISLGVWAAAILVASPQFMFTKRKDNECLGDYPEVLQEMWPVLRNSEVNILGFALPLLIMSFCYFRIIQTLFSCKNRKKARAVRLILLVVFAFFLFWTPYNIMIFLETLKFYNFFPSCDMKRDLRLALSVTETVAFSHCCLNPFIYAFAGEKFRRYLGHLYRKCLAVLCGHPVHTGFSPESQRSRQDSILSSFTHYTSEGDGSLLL

mouse Fkn (from UniProt O35188 25-105) (ligand)
chemotactic index of mouse leukocytes toward G glycoprotein with Fkn as antagonist (chemotactic index) [1]: 1.2 | inhibition of mouse leukocyte chemotaxis toward G glycoprotein by Fkn [1]: 75%

anti-F glycoprotein monoclonal antibody 131-2A
percent positive staining of GHIS in the presence of the antibody [2]: 60%

normal rabbit sera
RSV plaque inhibition (%) on Vero cells; Normal rabbit sera (control) [3]: 6%

B1: anti-G glycoprotein monoclonal antibody 131-2G (antibody, from another filing, V domains shown)
VH: EVQLQQSGPELVKPGTSVKISCKASGYSFTGFTMNWVKQSHGKNLEWFGLINPFNGNTGYNQKFKGKATLTVDKSSSTAFMELLSLTSEDSAVYYCARSGKSYDYEAWFTYWGQGTLVTVSA
VL: DIVMTQTTLSLPVSLGNQASISCRSSQTIVHTNGNTYLEWYLQKPGQSPKLLIYKVSNRFSGVPDRFSGSGSGTDFILNISRVEAEDLGVYYCFQGSHVPFTFGSGTKLEIKR
percent positive staining of GHIS in the presence of the antibody [4]: 10% | chemotactic index of mouse leukocytes toward G glycoprotein with anti-G glycoprotein (131-2G) (chemotactic index) [5]: 1.1 | chemotactic index of mouse leukocytes toward Fkn with anti-G glycoprotein (131-2G) (chemotactic index) [6]: 4.8 | percent inhibition [7]: 32 to 48% | percent inhibition [8]: 80 to 88%

B2: human fractalkine (R&D Diagnostics) (ligand, UniProt P78423 25-100, looked up)
chain: QHHGVTKCNITCSKMTSKIPVALLIHYQQNQASCGKRAIILETRQHRLFCADPKEQWVKDAMQHLDRQAAALTRNG
notes: also called Fkn; human Fkn
Kd [9]: 5.8 nM

B3: RSV G glycoprotein, purified from RSV/A2-infected Vero cells (ligand, respiratory syncytial virus, A2 strain, UniProt P03423 1-298, looked up)
chain: MSKNKDQRTAKTLERTWDTLNHLLFISSCLYKLNLKSVAQITLSILAMIISTSLIIAAIIFIASANHKVTPTTAIIQDATSQIKNTTPTYLTQNPQLGISPSNPSEITSQITTILASTTPGVKSTLQSTTVKTKNTTTTQTQPSKPTTKQRQNKPPSKPNNDFHFEVFNFVPCSICSNNPTCWAICKRIPNKKPGKKTTTKPTKKPTLKTTKKDPKPQTTKSKEVPTTKPTEEPTINTTKTNIITTLLTSNTTGNPELTSQMETFHSTSSEGNPSPSQVSTTSEYPSQPSSPPNTPRQ
notes: Lectin and Q-Sepharose purified; concentration estimated with a molecular weight of 90 kD; also called attachment protein
Kd [10]: 2.1 nM

B4: G glycoprotein peptide EYp1, TCAAACKRIPNKK (SEQ ID NO: 5) (peptide)
peptide: TCAAACKRIPNKK
notes: 13-mer variant of RT33 with the motif CAAAC
percent inhibition [11]: > 90%

TCDAACKRIPNKK [peptide TCDAACKRIPNKK (SEQ ID NO: 8)]
percent inhibition [11]: > 90%

TCFAACKRIPNKK [peptide TCFAACKRIPNKK (SEQ ID NO: 11)]
percent inhibition [11]: > 90%

TCMAACKRIPNKK [peptide TCMAACKRIPNKK (SEQ ID NO: 10)]
percent inhibition [11]: > 90%

TCNAACKRIPNKK [peptide TCNAACKRIPNKK (SEQ ID NO: 7)]
percent inhibition [11]: > 90%

TCWAACKRIPNKK [peptide TCWAACKRIPNKK (SEQ ID NO: 6)]
percent inhibition [11]: > 90%

VPCSICSNNPTC (synthetic 12-mer, lacks the CX3C motif) [G glycoprotein peptide RT32]
percent positive staining of G glycoprotein in the presence of the peptide [12]: 72%

B5: G glycoprotein peptide RT34 (peptide)
peptide: NKKPGKKTTTKP
notes: synthetic 12-mer C-terminal to the CX3C motif
percent positive staining of G glycoprotein in the presence of the peptide [12]: 74%

B6: G glycoprotein peptide RT33 (peptide)
peptide: TCWAICKRIPNK
notes: synthetic 12-mer with the CX3C motif CWAIC
percent positive staining of G glycoprotein in the presence of the peptide [12]: 48%

TCWACKRIPNK [G glycoprotein peptide ?-1, 11-mer variant of RT33 with a deletion of ILE in the CX3C motif]
percent positive staining of G glycoprotein in the presence of the peptide [12]: 73%
